# From patent publication US20190271705A1
# How the values were obtained:
# [1] = target: seven peptides (fluorescein-labeled pTyr-containing peptides of the fluorescence polarization assay); assay: fluorescence polarization in solution, SH2 domain titrated against fluorescein-labeled peptide
# [2] = target: seven peptides (fluorescein-labeled pTyr-containing peptides of the fluorescence polarization assay); assay: fluorescence polarization in solution; average over seven peptides, reference wild-type Fyn SH2 domain
Binder,Kd [1] [µM],average fold affinity increase (Kd[wild-type] divided by Kd[variant]) [2] [fold]
"wild-type Fyn SH2 domain (hexa-histidine-tagged construct, SEQ ID NO:4) (protein) MKIEEHHHHHHSSGRENLYFQGGAAQPAAPVDSIQAEEWYFGKLGRKDAERQLLSFGNPRGTFLIRESETTKGAYSLSIRDWDDMKGDHVKHYKIRKLDNGGYYITTRAQFETLQQLVQHYSERAAGLSSRLVVPSHKGAAA",10,–
T8I/S10A/K15L variant Fyn SH2 domain (designed binder) MKIEEHHHHHHSSGRENLYFQGGAAQPAAPVDSIQAEEWYFGKLGRKDAERQLLSFGNPRGTFLIRESETIKGAYALSIRDWDDMKGDHVKHYLIRKLDNGGYYITTRAQFETLQQLVQHYSERAAGLSSRLVVPSHKGAAA,–,86.4
T8V variant Fyn SH2 domain (designed binder) MKIEEHHHHHHSSGRENLYFQGGAAQPAAPVDSIQAEEWYFGKLGRKDAERQLLSFGNPRGTFLIRESETVKGAYSLSIRDWDDMKGDHVKHYKIRKLDNGGYYITTRAQFETLQQLVQHYSERAAGLSSRLVVPSHKGAAA,–,1.4
